In assay [1] the target is T1, HBx AD38 (genotype D) residue 27-50 peptide (Hepatitis B virus genotype D).
T1 construct: also called HBx27-50; HBx27-50 peptide
T1 peptide: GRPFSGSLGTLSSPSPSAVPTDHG
As to the kind of experiment: ELISA, 100 ng/mL antibody with varying peptide concentration.

The target in a further assay is T2, HBx69-87 control peptide (Hepatitis B virus, UniProt P03165 69-87).
T2 construct: range 69-87; also called HBx69-87 peptide
T2 peptide: CALRFTSARRMETTVNAHQ
As to the kind of experiment: ELISA with varying concentrations of peptide. A general note: ELISA stands for enzyme-linked immunosorbent assay.

Here are results for 1 molecule from US20190309052A1 (Gilead, published 2019).

B1: HBx M19 mouse monoclonal anti-HBx antibody (antibody, V domains shown)
VH: EVQLQQSGPELVKPGASVKISCQASGYTFTDYYMNWVKQSHGKRLEWIGDINPNNGGTAYNQKFKGKATLTVDRSSSTAYMEVRSLTSEDSAVYFCALLAYWGQGTLVTVSA
VL: DVVMTQTPLSLPVSLGDQASISCRSSQSLVYSDGNTHLHWYLQKTGQSPKLLIYKASNRFSGVPDRFSGSGSGTDFTLKISRVEAEDLGVYFCSQSTHVPLTFGAGTKLELKR
notes: also called aHBx mAb; αHBx mAb
With B1, the binding result was “binds” in assay [1] and “no binding (tested: 100 ng/mL antibody)” in the assay with HBx69-87 control peptide.
